Source: patent US20150238641A1 (BRITISH COLUMBIA CANCER AGENCY BRANCH, published 2015)
Where “and” joins values, the source holds several entries; their conditions need not be identical. Identical values can stand only once. One block for each binder: values may come before it. Where no end group is shown, it is not given here. [ ]: non-standard residue; d: D form. The star is where a group is joined. DOTA = O=C(O)CN1CCN(CC(=O)O)CCN(CC(=O)*)CCN(CC(=O)O)CC1; Hyp = O=C(O)[C@@H]1C[C@@H](O)CN1; Cha = N[C@@H](CC1CCCCC1)C(=O)O; Ahx = NCCCCCC(=O)O

Assays:
[1] = molecular target: T1, human bradykinin B1 receptor (human, UniProt P46663 1-353); test: saturation radioligand binding, CHO-K1::hB1R against HEK293T::GFP::hB1R membranes
T1 construct: whole, on cells; Assays were run on cell membrane preparations (50 ug/well), not on intact cells; HEK293T::GFP::hB1R membranes appear only in the saturation assay; also called hB1R; BDKRB1
T1 sequence (looked up): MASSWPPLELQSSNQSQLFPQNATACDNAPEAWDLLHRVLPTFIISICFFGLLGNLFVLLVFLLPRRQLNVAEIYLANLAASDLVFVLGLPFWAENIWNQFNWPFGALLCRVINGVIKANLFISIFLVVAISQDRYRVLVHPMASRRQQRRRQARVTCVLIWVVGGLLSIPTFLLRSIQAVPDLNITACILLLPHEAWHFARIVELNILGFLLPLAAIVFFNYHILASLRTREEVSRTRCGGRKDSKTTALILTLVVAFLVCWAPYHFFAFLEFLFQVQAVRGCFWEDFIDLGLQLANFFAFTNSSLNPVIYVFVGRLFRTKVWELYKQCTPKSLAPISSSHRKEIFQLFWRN
Description: (§1) Assays were done using 96-well MultiScreenHTS with glass fiber filter and PVDF support obtained from Millipore Corp, Billerica, Mass. (cat. no. MSFB N6B, lot no. R8AN42424). Wells of the MultiScreen plate were pre-soaked with 0.5% of cold Poly(ethyleneimine) (PEI) (cat. no. P3143, Sigma-Aldrich, St. Louis, Mo.) for 30 minutes. Afterward, wells were washed once with 50 mM of Tris-HCl pH 7.4. Total volume per wells was 200 μL. […] The assay buffer contained 50 mM of Tris-HCl pH 7.4 and 5 mM of MgCl₂. The Multiscreen plate was incubated at 27° C. for 15 minutes. The assay was stopped by suctioning the reaction solution through the PVDF membrane filter, and washing the filter with ice cold 50 mM Tris-HCl pH 7.4. Scintillation fluid was added to each well, and the radioactivity was measured using a MicroBeta Trilux Microplate Scintillation and Luminescence Counter (Perkin Elmer Inc., Shelton, Conn.). Graphpad Prism 5 was used to calculate the affinity constant (Kd) and the receptor concentration (Bmax).

[2] = molecular target: T1, human bradykinin B1 receptor; test: saturation radioligand binding, membranes of CHO-K1::hB1R cells
Description: as §1

[3] = molecular target: T1, human bradykinin B1 receptor; test: saturation radioligand binding, membranes of HEK293T::GFP::hB1R cells
Description: as §1

[4] = molecular target: T1, human bradykinin B1 receptor; test: average Ki of the competitive radioligand binding assays on hB1R membranes
Description: (§2) Competitive Binding Assays: Assays were performed using 96-well MultiScreenₘₛ with glass fiber filter and PVDF support obtained from Millipore Corp, Billerica, Mass. (cat. no. MSFB N6B, lot no. R8AN42424). Wells of the MultiScreen plate were pre-soaked with 0.5% of cold Poly(ethyleneimine) (PEI) (cat. no. P3143, Sigma-Aldrich, St. Louis, Mo.) for 30 minutes. Afterward, wells were washed once with 50 mM of Tris-HCl pH 7.4. Total volume per wells was 200 μL. […] The MultiScreen plate was then incubated at 27° C. for 15 minutes with agitation at 300 rpm. The assay was stopped by suctioning the reaction solution through the bottom PVDF membrane filter and discarded. The membranes were washed 7x with 150 μL/well of cold 50 mM Tris-HCl pH 7.4. Radioactivity was counted using 1450 MicroBeta TriLux—Microplate Scintillation and Luminescence Counter (Perkin Elmer Inc., Shelton, Conn.).

[5] = molecular target: T1, human bradykinin B1 receptor; test: competitive radioligand binding; hot ligand BK-ANT-ARC 4.6 nM; CHO-K1 hB1R membranes
Description: as §2

[6] = molecular target: T1, human bradykinin B1 receptor; test: competitive radioligand binding; hot ligand BK-ANT-ARC 4.5 nM; CHO-K1 hB1R membranes
Description: as §2

[7] = molecular target: T1, human bradykinin B1 receptor; test: competitive radioligand binding; hot ligand BK-AG-ARC 12.5 nM; CHO-K1 hB1R membranes
Description: as §2

[8] = molecular target: T1, human bradykinin B1 receptor; test: average Ki of the competitive radioligand binding assays on hB1R membranes (single assay)
Description: as §2

[9] = molecular target: T1, human bradykinin B1 receptor; test: competitive radioligand binding; hot ligand BK-ANT-ARC 12.5 nM; CHO-K1 hB1R membranes
Description: as §2

[10] = molecular target: T1, human bradykinin B1 receptor; test: assay not described at this place; competitive binding presumed

B1: [3,4-prolyl-3,4-3H(N)] [Leu^9, Des-Arg^10]Kallidin (peptide)
peptide: KRPPGFSPL
modifications: also: 3,4-prolyl-3,4-3H(N) tritium label on proline
notes: Radioligand from American Radiolabeled Chemicals (ART1609) or Perkin Elmer (NET1096250UC); also called BK-ANT-ARC; BK-ANT-PE
- fold lower Kd in CHO-K1::hB1R cells than in HEK293T::GFP::hB1R cells [1]: 6 fold
- Kd [2]: 0.574 nM
- Kd [3]: 3.46 nM

B4: Peptide 10: Ga-DOTA-Ahx-Lys-Arg-Pro-Hyp-Gly-Cha-Ser-Pro-Leu (peptide)
peptide: KRPXGXSPL
modifications: N-terminal Ga-DOTA-Ahx-; Hyp at position 4; Cha at position 6
- Ki [4]: 27.8 nM
- Ki [5]: 22.3 nM and 29 nM and 32 nM

B5: Peptide 2: DTPA-Ahx-Lys-Arg-Pro-Hyp-Gly-Cha-Ser-Pro-(D-Phe) (peptide)
peptide: KRPXGXSPF
modifications: N-terminal DTPA-Ahx- (printed 'DPA-Ahx' in Table 4); Hyp at position 4; Cha at position 6; D-Phe at position 9
- Ki [7]: 131 nM
- Ki [8]: 131 nM

B7: Peptide 1: D-Pra-Ahx-Lys-Arg-Pro-Hyp-Gly-Cha-Ser-Pro-(D-Phe) (peptide)
peptide: KRPXGXSPF
modifications: N-terminal D-Pra-Ahx- (D-propargylglycine, 6-aminohexanoic acid); Hyp (hydroxyproline) at position 4; Cha (beta-cyclohexylalanine) at position 6; D-Phe at position 9
notes: Agonist-derived probe
- Ki [7]: 10.9 nM
- Ki [4]: 32.2 nM
- Ki [9]: 74.6 nM

B8: H-Lys-Arg-Pro-Pro-Gly-Phe-Ser-Pro-Leu-OH (BK-ANT, Bachem H-2582) (peptide)
peptide: H-KRPPGFSPL-OH
notes: Unlabelled control B1R antagonist bought from Bachem; also called Lys[Leu^8]-des-Arg^9-BK; [Leu^9,des-Arg^10]kallidin
- Ki [5]: 0.49 nM

Other lines, results leading:

- Ki [4]: 11.4 nM
- Ki [5]: 13.5 nM
- Ki [6]: 8.63 nM and 12.1 nM
B2: Peptide 8: Ga-DOTA-Gly-Gly-Lys-Arg-Pro-Hyp-Gly-Cha-Ser-Pro-Leu (peptide)
peptide: {DOTA}-GGKRP[Hyp]G[Cha]SPL
modifications: also: Ga loaded in DOTA
notes: 68Ga-labelled in vivo

- Ki [4]: 16 nM
- Ki [5]: 13.3 nM and 17.1 nM and 17.6 nM and 16 nM
B3: Peptide 3: Ga-DOTA-PEG2-Lys-Arg-Pro-Hyp-Gly-Cha-Ser-Pro-Leu (peptide)
peptide: KRPXGXSPL
modifications: N-terminal Ga-DOTA-PEG2- (PEG2 = 3-[2-(2-aminoethoxyl)ethoxy]propanoic acid); Hyp at position 4; Cha at position 6
notes: 68Ga-labelled in the in vivo imaging; also called Ga-68 Peptide 3

- Ki [4]: 25.4 nM
- Ki [5]: 19.7 nM and 29.1 nM and 27.5 nM
B6: Peptide 12: Ga-DOTA-Ahx-Lys-Arg-Pro-Hyp-Gly-Cha-Ser-Pro-(D-Phe) (peptide)
peptide: KRPXGXSPF
modifications: N-terminal Ga-DOTA-Ahx-; Hyp at position 4; Cha at position 6; D-Phe at position 9
notes: 68Ga-labelled in vivo

- Ki [10]: 12.4 nM
- Ki [4]: 2.55 nM
- Ki [5]: 2.47 nM and 3.57 nM and 2.23 nM and 1.93 nM
B9: Peptide 4: Ga-DOTA-Ahx-Lys-Arg-Pro-Pro-Gly-Phe-Ser-Pro-Leu (peptide)
peptide: {DOTA-Ahx}-KRPPGFSPL
modifications: also: Ga complex of DOTA (natGa in assays, 68Ga in vivo)
notes: also called P03083
